Results published in patent publication US20250312499A1, “KISSPEPTIN RECEPTOR (KISS1R) TARGETED THERAPEUTICS AND USES THEREOF” (priority 2024, published 2025).
Numbered stars: 1 amine (or outer) side, 2 acyl side, 3 side chain; on linkers, the order of the positions; unused ones are H or OH. Square brackets hold non-standard residues; d marks the D form. Ends that are not written are not given here. * marks the point of attachment. X2 = 4‑amino‑1‑((3-fluoro-4-methylbenzyl)glycyl)piperidine‑4‑carboxylic acid, Cc1ccc(CN(CC(=O)N2CCC(N[*:1])(C(=O)[*:2])CC2)[*:3])cc1F; X6 = 3‑(2-(2-(3-(p-tolyl)propanamido)ethoxy)ethoxy)propanoyl, Cc1ccc(CCC(=O)NCCOCCOCCC(=O)*)cc1; DOTA = O=C(O)CN1CCN(CC(=O)O)CCN(CC(=O)*)CCN(CC(=O)O)CC1; HO(CH2CH2O)2CH2CH2CO = O=C(CCOCCOCCO)*; Phe(3-F) = N[C@@H](Cc1cccc(F)c1)C(=O)O; d4Pal = N[C@H](Cc1ccncc1)C(=O)O; Cha = N[C@@H](CC1CCCCC1)C(=O)O; Octanoyl = CCCCCCCC(=O)*; APM = not defined here; Ahx = NCCCCCC(=O)O; azaGly = NNC(=O)O

What follows are binders tested against human kisspeptin receptor (KISS1R) (human), Q969F8 (assay: radioligand competition, hKISS1R membranes; legend: A is <10 nM).
Chain of human kisspeptin receptor (KISS1R) (human), Q969F8 (Q969F8 whole entry): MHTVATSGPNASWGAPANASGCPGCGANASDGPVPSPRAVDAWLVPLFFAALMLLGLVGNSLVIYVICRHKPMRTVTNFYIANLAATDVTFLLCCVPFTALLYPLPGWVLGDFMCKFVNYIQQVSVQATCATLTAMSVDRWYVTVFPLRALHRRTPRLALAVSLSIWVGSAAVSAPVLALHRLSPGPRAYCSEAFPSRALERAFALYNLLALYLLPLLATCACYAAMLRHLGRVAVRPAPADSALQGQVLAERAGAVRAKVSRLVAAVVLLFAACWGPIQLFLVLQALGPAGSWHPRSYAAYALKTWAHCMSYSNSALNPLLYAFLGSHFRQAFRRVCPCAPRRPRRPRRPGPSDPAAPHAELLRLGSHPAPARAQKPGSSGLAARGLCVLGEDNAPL

Binder	Ki
{DOTA-APM}-[dY][dH][dW]NTF[azaGly]L[X2]W-NH2 (reading uncertain) [Compound 33]	< 10 nM
{DOTA-2‑(4-aminopiperidin-1-yl)acetic acid}-[dY]ENT[Phe(3-F)][azaGly]L[X2]W-NH2 [Compound 24]	< 10 nM
{DOTA-Ahx}-[dY]PNTF[azaGly]L[X2]W-NH2 (SMILES Cc1ccc(CNCC(=O)N2CCC(NC(=O)[C@H](CC(C)C)NC(=O)NNC(=O)[C@H](Cc3ccccc3)NC(=O)[C@@H](NC(=O)[C@H](CC(N)=O)NC(=O)[C@@H]3CCCN3C(=O)[C@@H](Cc3ccc(O)cc3)NC(=O)CCCCCNC(=O)CN3CCN(CC(=O)O)CCN(CC(=O)O)CCN(CC(=O)O)CC3)[C@@H](C)O)(C(=O)N[C@@H](Cc3c[nH]c4ccccc34)C(N)=O)CC2)cc1F) [Compound 20]	< 10 nM
{DOTA-Ahx}-[dY]WNT[Phe(3-F)][azaGly]L[X2]W-NH2 (SMILES Cc1ccc(CNCC(=O)N2CCC(NC(=O)[C@H](CC(C)C)NC(=O)NNC(=O)[C@H](Cc3cccc(F)c3)NC(=O)[C@@H](NC(=O)[C@H](CC(N)=O)NC(=O)[C@H](Cc3c[nH]c4ccccc34)NC(=O)[C@@H](Cc3ccc(O)cc3)NC(=O)CCCCCNC(=O)CN3CCN(CC(=O)O)CCN(CC(=O)O)CCN(CC(=O)O)CC3)[C@@H](C)O)(C(=O)N[C@@H](Cc3c[nH]c4ccccc34)C(N)=O)CC2)cc1F) [Compound 35]	< 10 nM
{DOTA-Ahx}-[dW]NTF[azaGly]L[X2]W-NH2 (SMILES Cc1ccc(CNCC(=O)N2CCC(NC(=O)[C@H](CC(C)C)NC(=O)NNC(=O)[C@H](Cc3ccccc3)NC(=O)[C@@H](NC(=O)[C@H](CC(N)=O)NC(=O)[C@@H](Cc3c[nH]c4ccccc34)NC(=O)CCCCCNC(=O)CN3CCN(CC(=O)O)CCN(CC(=O)O)CCN(CC(=O)O)CC3)[C@@H](C)O)(C(=O)N[C@@H](Cc3c[nH]c4ccccc34)C(N)=O)CC2)cc1F) [Compound 30]	< 10 nM
{DOTA-Ahx}-[dY]KNT[Phe(3-F)][azaGly]L[X2]W-NH2 (SMILES Cc1ccc(CNCC(=O)N2CCC(NC(=O)[C@H](CC(C)C)NC(=O)NNC(=O)[C@H](Cc3cccc(F)c3)NC(=O)[C@@H](NC(=O)[C@H](CC(N)=O)NC(=O)[C@H](CCCCN)NC(=O)[C@@H](Cc3ccc(O)cc3)NC(=O)CCCCCNC(=O)CN3CCN(CC(=O)O)CCN(CC(=O)O)CCN(CC(=O)O)CC3)[C@@H](C)O)(C(=O)N[C@@H](Cc3c[nH]c4ccccc34)C(N)=O)CC2)cc1F) [Compound 27]	< 10 nM
{DOTA-Ahx}-NTF[azaGly]L[X2]W-NH2 (SMILES Cc1ccc(CNCC(=O)N2CCC(NC(=O)[C@H](CC(C)C)NC(=O)NNC(=O)[C@H](Cc3ccccc3)NC(=O)[C@@H](NC(=O)[C@H](CC(N)=O)NC(=O)CCCCCNC(=O)CN3CCN(CC(=O)O)CCN(CC(=O)O)CCN(CC(=O)O)CC3)[C@@H](C)O)(C(=O)N[C@@H](Cc3c[nH]c4ccccc34)C(N)=O)CC2)cc1F) [Compound 26]	< 10 nM
{DOTA}-[dY][d4Pal]NTF[azaGly]L[X2]W-NH2 (SMILES Cc1ccc(CNCC(=O)N2CCC(NC(=O)[C@H](CC(C)C)NC(=O)NNC(=O)[C@H](Cc3ccccc3)NC(=O)[C@@H](NC(=O)[C@H](CC(N)=O)NC(=O)[C@@H](Cc3ccncc3)NC(=O)[C@@H](Cc3ccc(O)cc3)NC(=O)CN3CCN(CC(=O)O)CCN(CC(=O)O)CCN(CC(=O)O)CC3)[C@@H](C)O)(C(=O)N[C@@H](Cc3c[nH]c4ccccc34)C(N)=O)CC2)cc1F) [Compound 23]	< 10 nM
{DOTA-Ahx}-[dY][dH][dW]NTF[azaGly]L[X2]W-NH2 (SMILES Cc1ccc(CNCC(=O)N2CCC(NC(=O)[C@H](CC(C)C)NC(=O)NNC(=O)[C@H](Cc3ccccc3)NC(=O)[C@@H](NC(=O)[C@H](CC(N)=O)NC(=O)[C@@H](Cc3c[nH]c4ccccc34)NC(=O)[C@@H](Cc3c[nH]cn3)NC(=O)[C@@H](Cc3ccc(O)cc3)NC(=O)CCCCCNC(=O)CN3CCN(CC(=O)O)CCN(CC(=O)O)CCN(CC(=O)O)CC3)[C@@H](C)O)(C(=O)N[C@@H](Cc3c[nH]c4ccccc34)C(N)=O)CC2)cc1F) [Compound 32]	< 10 nM
{DOTA-APM}-[dY][dW]NT[Phe(3-F)][azaGly]L[X2]W-NH2 (reading uncertain) [Compound 34]	< 10 nM
{DOTA-APM}-F[azaGly]L[X2]W-NH2 (reading uncertain) [Compound 28]	< 10 nM
{DOTA-Ahx}-FF[azaGly]L[X2]W-NH2 (not fully specified; numbers in words are those of the source; also: places azaglycine at site 3) [Compound 22]	< 10 nM
{DOTA-4‑(aminomethyl)cyclohexanecarboxylic acid}-F[azaGly]L[X2]W-NH2 [Compound 25]	< 10 nM
{DOTA-Ahx}-[dY]ENT[Phe(3-F)][azaGly]L[X2]W-NH2 (SMILES Cc1ccc(CNCC(=O)N2CCC(NC(=O)[C@H](CC(C)C)NC(=O)NNC(=O)[C@H](Cc3cccc(F)c3)NC(=O)[C@@H](NC(=O)[C@H](CC(N)=O)NC(=O)[C@H](CCC(=O)O)NC(=O)[C@@H](Cc3ccc(O)cc3)NC(=O)CCCCCNC(=O)CN3CCN(CC(=O)O)CCN(CC(=O)O)CCN(CC(=O)O)CC3)[C@@H](C)O)(C(=O)N[C@@H](Cc3c[nH]c4ccccc34)C(N)=O)CC2)cc1F) [Compound 36]	< 10 nM

Other lines, results leading:

Ki	Binder
< 10 nM	{HO(CH2CH2O)2CH2CH2CO}-[dY]K(DOTA)NTF[azaGly]L[X2]W-NH2 (SMILES Cc1ccc(CNCC(=O)N2CCC(NC(=O)[C@H](CC(C)C)NC(=O)NNC(=O)[C@H](Cc3ccccc3)NC(=O)[C@@H](NC(=O)[C@H](CC(N)=O)NC(=O)[C@H](CCCCNC(=O)CN3CCN(CC(=O)O)CCN(CC(=O)O)CCN(CC(=O)O)CC3)NC(=O)[C@@H](Cc3ccc(O)cc3)NC(=O)CCOCCOCCO)[C@@H](C)O)(C(=O)N[C@@H](Cc3c[nH]c4ccccc34)C(N)=O)CC2)cc1F) [Compound 379]
< 10 nM	Ac-[dY]K(DOTA)NTF[azaGly]L[X2]W-NH2 (SMILES CC(=O)N[C@H](Cc1ccc(O)cc1)C(=O)N[C@@H](CCCCNC(=O)CN1CCN(CC(=O)O)CCN(CC(=O)O)CCN(CC(=O)O)CC1)C(=O)N[C@@H](CC(N)=O)C(=O)N[C@H](C(=O)N[C@@H](Cc1ccccc1)C(=O)NNC(=O)N[C@@H](CC(C)C)C(=O)NC1(C(=O)N[C@@H](Cc2c[nH]c3ccccc23)C(N)=O)CCN(C(=O)CNCc2ccc(C)c(F)c2)CC1)[C@@H](C)O) [Compound 380]
< 10 nM	X6-[dY]K(DOTA)NT[Cha][azaGly]L[4‑amino‑1‑carbamimidoylpiperidine‑4‑carboxylic acid(Sarcosine)]W-NH2 [Compound 387]
< 10 nM	{DOTA-NH‑PEG2‑propanoyl}-[dY][dW]NTF[azaGly]L[X2]W-NH2 [Compound 382]
< 10 nM	{DOTA-NH‑PEG2‑propanoyl}-[dY][d4Pal]NTF[azaGly]L[X2]W-NH2 [Compound 368]
< 10 nM	{DOTA-Ahx}-[dY][dW]NTF[azaGly]L[X2]Y-NH2 (SMILES Cc1ccc(CNCC(=O)N2CCC(NC(=O)[C@H](CC(C)C)NC(=O)NNC(=O)[C@H](Cc3ccccc3)NC(=O)[C@@H](NC(=O)[C@H](CC(N)=O)NC(=O)[C@@H](Cc3c[nH]c4ccccc34)NC(=O)[C@@H](Cc3ccc(O)cc3)NC(=O)CCCCCNC(=O)CN3CCN(CC(=O)O)CCN(CC(=O)O)CCN(CC(=O)O)CC3)[C@@H](C)O)(C(=O)N[C@@H](Cc3ccc(O)cc3)C(N)=O)CC2)cc1F) [Compound 366]
< 10 nM	Octanoyl-[dY]K(DOTA)NTF[azaGly]L[X2]W-NH2 (SMILES CCCCCCCC(=O)N[C@H](Cc1ccc(O)cc1)C(=O)N[C@@H](CCCCNC(=O)CN1CCN(CC(=O)O)CCN(CC(=O)O)CCN(CC(=O)O)CC1)C(=O)N[C@@H](CC(N)=O)C(=O)N[C@H](C(=O)N[C@@H](Cc1ccccc1)C(=O)NNC(=O)N[C@@H](CC(C)C)C(=O)NC1(C(=O)N[C@@H](Cc2c[nH]c3ccccc23)C(N)=O)CCN(C(=O)CNCc2ccc(C)c(F)c2)CC1)[C@@H](C)O) [Compound 381]
< 10 nM	[dY]K(DOTA)NTF[azaGly]L[4‑amino‑1‑carbamimidoylpiperidine‑4‑carboxylic acid(Sarcosine)]W-NH2 (not fully specified (N-terminus)) [Compound 384]
< 10 nM	{DOTA-Ahx}-[dY][dW]NTF[azaGly]L[X2][dW]-NH2 (SMILES Cc1ccc(CNCC(=O)N2CCC(NC(=O)[C@H](CC(C)C)NC(=O)NNC(=O)[C@H](Cc3ccccc3)NC(=O)[C@@H](NC(=O)[C@H](CC(N)=O)NC(=O)[C@@H](Cc3c[nH]c4ccccc34)NC(=O)[C@@H](Cc3ccc(O)cc3)NC(=O)CCCCCNC(=O)CN3CCN(CC(=O)O)CCN(CC(=O)O)CCN(CC(=O)O)CC3)[C@@H](C)O)(C(=O)N[C@H](Cc3c[nH]c4ccccc34)C(N)=O)CC2)cc1F) [Compound 383]
< 10 nM	X6-[dY][dK](DOTA)NT[Cha][azaGly]L[4‑amino‑1‑carbamimidoylpiperidine‑4‑carboxylic acid(Sarcosine)]W-NH2 [Compound 388]
